T1: Dam1 (budding yeast, UniProt P53267 1-343)
T1 construct: Dam1, subunit of the budding yeast Dam1 complex; Subunit inside the recombinant 10-subunit complex; also called Dam1 subunit; source: expressed and purified as part of the Dam1 complex as described [3]
T1 sequence (looked up): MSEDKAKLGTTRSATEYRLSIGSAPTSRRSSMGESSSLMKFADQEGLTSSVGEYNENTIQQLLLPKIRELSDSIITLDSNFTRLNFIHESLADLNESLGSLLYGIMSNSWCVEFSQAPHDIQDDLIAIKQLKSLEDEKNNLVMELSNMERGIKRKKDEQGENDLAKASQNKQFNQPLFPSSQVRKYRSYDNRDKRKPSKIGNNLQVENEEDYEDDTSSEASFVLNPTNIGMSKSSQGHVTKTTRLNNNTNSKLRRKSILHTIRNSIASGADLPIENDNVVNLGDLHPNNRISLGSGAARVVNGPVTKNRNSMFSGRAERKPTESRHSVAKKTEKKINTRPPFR

B1: Ask1 (natural protein, budding yeast, UniProt P35734 1-292, looked up)
chain: MDSASKEETLEKLDQEITVNLQKIDSNLSFCFHKITQDIIPHVATYSEICERIMDSTEWLGTMFQETGLVNLQANAAAPVGNAPVKSLVSNNVGIFPTSAEEASRQSQTDNGPNEADSAVHVNRDVHSMFNNDSIDDFHTANITSTGQILKLPDSSDEDTGSEAVPSREQTDLTGEGHGGADDEQDESTIQRQSRKRKISLLLQQQYGSSSSMVPSPIVPNKMRKQLAHEEHINNDGDNDDENSNNIESSPLKQGHHHPKGQADDNNEGPDEEESTKEVPKPGTIIHFSTNR
notes: Ask1, subunit of the budding yeast Dam1 complex; Subunit inside the recombinant 10-subunit complex; source: expressed and purified as part of the Dam1 complex as described [3]
B2: Spc34 (natural protein, budding yeast, UniProt P36131 1-295, looked up)
chain: MGESLDRCIDDINRAVDSMSTLYFKPPGIFHNAILQGASNKASIRKDITRLIKDCNHDEAYLLFKVNPEKQSVSRRDGKEGVFDYVIKRDTDMKRNRRLGRPGEKPIIHVPKEVYLNKDRLDLNNKRRRTATTSGGGLNGFIFDTDLIGSSVISNSSSGTFKALSAVFKDDPQIQRLLYALENGSVLMEEESNNQRRKTIFVEDFPTDLILKVMAEVTDLWPLTEFKQDYDQLYHNYEQLSSKLRFIKKEVLLQDDRLKTMSQYHPSSSHDVAKIIRKEKDEIRRLEMEIANLQE
notes: Spc34, subunit of the budding yeast Dam1 complex; Subunit inside the recombinant 10-subunit complex; source: expressed and purified as part of the Dam1 complex as described [3]

How the values were obtained:
Assay in all cases: cross-linking; BS3, Dam1 complex at 0.3 mg/ml in BRB80, room temperature 40-60 min, digested in solution, mass spectrometry; some links may be between oligomerizing complexes
Details in all cases: both partners purified
Dam1 = target: T1, Dam1
Spc34 = target: B2
Ask1 = target: B1

binding result (Dam1)	binding result (Spc34)	binding result (Ask1)	Binder
binds	binds	–	B1
binds	–	–	B2
binds	binds	binds	Duo1 (natural protein, budding yeast, UniProt P53168 1-247, looked up, Duo1, subunit of the budding yeast Dam1 complex; Subunit inside the recombinant 10-subunit complex; also called Duo1 subunit; source: expressed and purified as part of the Dam1 complex as described [3]) MSEQSQLDDSTIDKLIPQIFNEMRSNLNNTTNKFPKSTGGGASDNISANSNSIRSFNSITTQSLLKESESLDKITAMIKNVTAALKNNLPVYVNQVHEVCKSTNSILDSWINIHSQAGYIHKLMSDQTYLKLINDRLHNENVNTNDEDGSTLHNVIALKKKEILDLRQKLENRKGEKDAAPAKPPNQGLNPRYGVQSGRRPVPSAGISNNGRVRKTHVPASKRPSGIPRVTNRWTKPTASSSRKMFR

— paper PMC4821239, “Molecular architecture of the Dam1 complex–microtubule interaction” (Open Biology, 2016)
